Reference: US20210087291A1 (Hoffmann-La Roche, published 2021)
Positions count from the first letter of the chain named. Where “and” joins values, the source holds several entries; their conditions need not be identical. Equal entries are not always repeated.

Columns and labels:
Tim3-ECD-His-Biotin [1] = target: T1, Tim3-ECD-His-Biotin (human, UniProt Q8TDQ0 22-202); assay: ELISA on Tim3-ECD-His-Biotin
T1 construct: also called human Tim3 (ELISA); Biochem Human
Protocol: After washing (3×90 μl/well with PBST-buffer) 25 μl aTim3 samples or diluted (1:2 steps) reference antibody aTim3 F38-2E2 (Biolegend) was added and incubated 1 h at RT. After washing (3×90 μl/well with PBST-buffer) 25 μl/well sheep-anti-mouse-POD (GE NA9310V) was added in 1:9000 dilution and incubated at RT for 1 h while shaking at 400 rpm rotation. After washing (4×90 μl/well with PBST-buffer) 25 μl/well TMB substrate (Calbiochem, #CL07) was added and incubated until OD 1.5-2.5. Then the reaction was stopped by addition of 25 μl/well 1N HCL-solution.

monomeric human Tim3-ECD [2] = target: T2, monomeric human Tim3-ECD (human, UniProt Q8TDQ0 22-202); assay: SPR Biacore, monovalent Tim3
T2 construct: also called huTim3
Protocol: (§1) Therefore, an anti-mouse IgG was immobilized by amine coupling to the surface of a (Biacore) CM5 sensor chip. The samples were then captured and hu/cy Tim3-ECD was bound to them. The sensor chip surface was regenerated after each analysis cycle. The equilibrium constant KD was finally gained by fitting the data to a 1:1 langmuir interaction model.
(§2) Flow cell temperature was set to 25° C. and sample compartment temperature to 12° C. The system was primed with running buffer. The samples were injected for 30 seconds with a concentration of 200 μg/ml and bound to the spots 1 and 5 of each flow cell, allowing the measurement of eight samples in parallel. Then a complete set of different (monomeric cyno, monomeric human and huFc fused dimeric human Tim3-ECD) concentrations (s. Table X) was injected over each sample for 240 s followed by a dissociation time of 30/1800 s (s. Table 1). Each analysis cycle (sample capture, spot 1 and 5—Tim3 ECD injection) was then regenerated with a 30 seconds long injection of Glycine-HCl pH 1.7. The flow rate was set to 30 μl/min for the whole run. Finally, the double referenced data was fitted to a 1:1 langmuir interaction model with the Biacore B4000 Evaluation Software.

human TIM-3 on cells [3] = target: T3, human TIM-3 on cells (human, UniProt Q8TDQ0 22-301); assay: cell ELISA, CHO-K1 expressing human Tim3
T3 construct: also called CHO-Tim3; rec CHOK1 cells expressing huTIM-3
Protocol: Then the reaction was stopped by addition of 25 μl/well 1N HCL-solution.

[4] = target: T4, huFc fused dimeric human Tim3-ECD (human, UniProt Q8TDQ0 22-202); assay: SPR Biacore, antibody captured by anti-mouse IgG
T4 construct: also called huTim3Fc; bivalent Tim3
Protocol: as §1, §2

monomeric human Tim3-ECD [5] = target: T2, monomeric human Tim3-ECD; assay: SPR Biacore, antibody captured by anti-mouse IgG
Protocol: as §1, §2

human TIM-3 on cells [6] = target: T3, human TIM-3 on cells; assay: flow cytometry, human CD14+ monocytes donor3
Description: (§3) CD14+ Monocytes were isolated from anticoagulated peripheral blood of healthy donors by density gradient centrifugation using Ficoll-Paque (GE Healthcare) (see General Protocols in the User Manuals or visit www.miltenyibiotec.com/protocols) and subsequent positive selection via CD14 MicroBeads. First the CD14+ cells are magnetically labeled with CD14 MicroBeads. Then the cell suspension is loaded onto a MACS® Column which is placed in the magnetic field of a MACS Separator. The magnetically labeled CD14+ cells are retained in the column. The unlabeled cells run through, this cell fraction is depleted of CD14+ cells. After removal of the column from the magnetic field, the magnetically retained CD14+ cells can be eluted as the positively selected cell fraction. After centrifugation at 200×g for 10 min at room temperature the monocytes were harvested and used directly in binding assay or resuspended in freezing medium (10% DMSO, 90% FCS) at 1.0E+07 cells/ml and stored in liquid nitrogen.
(§4) 1×10⁵ CD14+ isolated human monocytes (50 μl/well) were put into 98 well-v bottom MTP in fresh culture medium and incubated with Redimune® NF Liquid for 15 min at RT to block unspecific binding. […] After washing and centrifugation MFI signals of stained cells were analyzed by BD Biosciences FACSCanto flow cytometer.

human TIM-3 on cells [7] = target: T3, human TIM-3 on cells; assay: flow cytometry, human CD14+ monocytes donor2
Description: as §3, §4

human TIM-3 on cells [8] = target: T3, human TIM-3 on cells; assay: flow cytometry, human CD14+ monocytes donor1
Description: as §3, §4

[9] = target: T4, huFc fused dimeric human Tim3-ECD; assay: SPR Biacore, bivalent Tim3
Protocol: as §1, §2

human TIM-3 on cells [10] = target: T3, human TIM-3 on cells; assay: cell-based or functional assay
human TIM-3 on cells [11] = target: T3, human TIM-3 on cells; assay: cell-based or functional assay; remark: listed apart in the source
[12] = target: T5, cynomolgus TIM-3 on isolated cyno CD14+ monocytes (cynomolgus); assay: flow cytometry, cyno CD14+ monocytes cyno3
T5 construct: whole, on cells
Description: (§5) CD14+ Monocytes were isolated from cynomolgus monkey anticoagulated peripheral blood (Covance) by density gradient centrifugation using Ficoll-Paque (GE Healthcare) (see General Protocols in the User Manuals or visit www.miltenyibiotec.com/protocols) and subsequent positive selection via NHP CD14 MicroBeads. First the CD14+ cells are magnetically labeled with CD14 MicroBeads. Then the cell suspension is loaded onto a MACS® Column which is placed in the magnetic field of a MACS Separator. The magnetically labeled CD14+ cells are retained in the column. The unlabeled cells run through, this cell fraction is depleted of CD14+ cells. After removal of the column from the magnetic field, the magnetically retained CD14+ cells can be eluted as the positively selected cell fraction. After centrifugation at 200×g for 10 min at room temperature the monocytes were harvested and used directly in binding assay or resuspended in freezing medium (10% DMSO, 90% FCS) at 1.0E+07 cells/ml and stored in liquid nitrogen.
(§6) 1×10⁵ CD14+ isolated cyno monocytes (50 μl/well) were put into 98 well-v bottom MTP in fresh culture medium and incubated with Redimune® NF Liquid for 15 min at RT to block unspecific binding. Than 50 μl/well of Alexa488 labeled anti-TIM3 (10 μg/ml in cell culture medium) were added and incubated for 1 h at 4° C. After washing and centrifugation MFI signals of stained cells were analyzed by BD Biosciences FACSCanto flow cytometer.

[13] = target: T5, cynomolgus TIM-3 on isolated cyno CD14+ …; assay: flow cytometry, cyno CD14+ monocytes cyno1
Description: as §5, §6

[14] = target: T5, cynomolgus TIM-3 on isolated cyno CD14+ …; assay: flow cytometry, cyno CD14+ monocytes cyno2
Tim3-ECD-His-Biotin [15] = target: T1, Tim3-ECD-His-Biotin; assay: ELISA, human Tim3
human TIM-3 on cells [16] = target: T3, human TIM-3 on cells; assay: cell ELISA, CHO-Tim3
monomeric cyno Tim3-ECD = target: T6, monomeric cyno Tim3-ECD (cynomolgus, UniProt A0A2K5U3G7 22-195); assay: SPR Biacore, antibody captured by anti-mouse IgG
T6 construct: extracellular domain; also called cyTim3
T6 sequence: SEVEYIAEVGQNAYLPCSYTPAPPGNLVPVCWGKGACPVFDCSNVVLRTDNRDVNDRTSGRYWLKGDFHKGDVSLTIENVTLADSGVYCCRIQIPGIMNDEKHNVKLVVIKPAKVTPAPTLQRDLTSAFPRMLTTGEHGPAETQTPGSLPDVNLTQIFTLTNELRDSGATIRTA
Protocol: as §1, §2

human TIM-3 on cells [17] = target: T3, human TIM-3 on cells; assay: cell ELISA, CHO-Tim3; EC50 relative to the sample's max value
cynomolgus Tim3 (ELISA) [18] = target: T7, cynomolgus Tim3 (ELISA) (cynomolgus, UniProt A0A2K5U3G7 22-193); assay: ELISA, cyno Tim3
T7 construct: also called Biochem Cyno; cyno TIM3
T7 sequence: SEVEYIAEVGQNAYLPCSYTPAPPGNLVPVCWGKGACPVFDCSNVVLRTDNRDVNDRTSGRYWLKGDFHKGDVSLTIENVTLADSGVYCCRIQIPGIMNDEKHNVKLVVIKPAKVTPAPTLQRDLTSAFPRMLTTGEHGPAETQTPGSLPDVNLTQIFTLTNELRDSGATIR

Tim3-ECD-His-Biotin [19] = target: T1, Tim3-ECD-His-Biotin; assay: ELISA, human Tim3; EC50 relative to the sample's max value
cynomolgus Tim3 (ELISA) [20] = target: T7, cynomolgus Tim3 (ELISA); assay: ELISA, cyno Tim3; EC50 relative to the sample's max value
human FolR1 on cells = target: T8, human FolR1 on cells (human, UniProt P15328 25-234); assay: flow cytometry on HeLa cells (human FolR1), fluorescently labeled anti-human secondary antibody
T8 construct: also called FolR1 on HeLa, SKOV3, HT-29 tumor cells; HEK cells transfected with human FolR1
T8 sequence (P15328 25-234 limits assumed): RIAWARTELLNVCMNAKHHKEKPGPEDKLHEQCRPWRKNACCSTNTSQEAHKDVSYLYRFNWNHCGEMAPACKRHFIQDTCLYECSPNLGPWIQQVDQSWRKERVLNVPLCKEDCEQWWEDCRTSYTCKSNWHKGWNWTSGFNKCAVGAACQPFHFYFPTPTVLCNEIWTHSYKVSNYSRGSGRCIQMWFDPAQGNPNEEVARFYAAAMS
Protocol: Binding of newly generated FolR1 binders to FolR1 expressed on HeLa cells were determined by flow cytometry. Bound antibodies were detected with a fluorescently labeled anti-human secondary antibody.
The identified binders were converted into a human IgG1 format and binding to FolR1 high expressing HeLa cells was addressed.

[21] = target: T9, human FolR2 ECD-AcTev-Fcknob-Avi tag + Fc hole, biotinylated monomeric Fc fusion (human, UniProt P0DOX5 223-449 = IgG part); assay: SPR, IgG single injection
T9 construct: also called huFolR2; FolR2-Fc

[22] = target: T10, human FolR1 ECD-AcTev-Fcknob-Avi tag + Fc hole, biotinylated monomeric Fc fusion (human, UniProt P0DOX5 223-449 = IgG part); assay: SPR, IgG single injection
T10 construct: also called huFolR1; huFolR1-Fc

[23] = target: T11, human FolR3 ECD-AcTev-Fcknob-Avi tag + Fc hole, biotinylated monomeric Fc fusion (human, UniProt P0DOX5 223-449 = IgG part); assay: SPR, IgG single injection
T11 construct: also called huFolR3; FolR3-Fc

[24] = target: T12, cynomolgus FolR1 ECD-AcTev-Fcknob-Avi tag + Fc hole, biotinylated monomeric Fc fusion (cynomolgus, UniProt P0DOX5 223-449 = IgG part); assay: SPR, IgG single injection
T12 construct: also called cyFolR1; cyno FolR1-Fc

[25] = target: T9, human FolR2 ECD-AcTev-Fcknob-Avi tag + …; assay: SPR ProteOn, Fab analyte
Protocol: (§7) Immobilization of antigens (ligand): Recombinant antigens were diluted with PBST (10 mM phosphate, 150 mM sodium chloride pH 7.4, 0.005% Tween 20) to 10 μg/ml, then injected at 30 μl/minute in vertical orientation. Injection of analytes: For ‘one-shot kinetics’ measurements, injection direction was changed to horizontal orientation, two-fold dilution series of purified Fab (varying concentration ranges) were injected simultaneously along separate channels 1-5, with association times of 150 or 200 s, and dissociation times of 200 or 600 s, respectively. Buffer (PBST) was injected along the sixth channel to provide an “in-line” blank for referencing. Association rate constants (kₒₙ) and dissociation rate constants (koff) were calculated using a simple one-to-one Langmuir binding model in ProteOn Manager v3.1 software by simultaneously fitting the association and dissociation sensorgrams. The equilibrium dissociation constant (KD) was calculated as the ratio koff/kₒₙ.

[26] = target: T10, human FolR1 ECD-AcTev-Fcknob-Avi tag + …; assay: SPR ProteOn, Fab analyte
Protocol: as §7

[27] = target: T13, murine FolR1 ECD-AcTev-Fcknob-Avitag + Fc hole, biotinylated monomeric Fc fusion (murine, UniProt P0DOX5 223-449 = IgG part); assay: SPR ProteOn, Fab analyte
T13 construct: also called muFolR1; murine FolR1-Fc
Protocol: as §7

[28] = target: T11, human FolR3 ECD-AcTev-Fcknob-Avi tag + …; assay: SPR ProteOn, Fab analyte
Protocol: as §7

[29] = target: T12, cynomolgus FolR1 ECD-AcTev-Fcknob-Avi …; assay: SPR ProteOn, Fab analyte
Protocol: as §7

B1: Tim3_0026 (antibody, V domains shown)
VH: QIQLVQSGPELKKPGETVKISCKASGYTFTDYSMHWVKQAPGRGLKWMGYINTETYEPTFGADFKGRFAFSLDTSATTAYLQINSLKTEDTATFFCGGGGYPAYWGQGTVVIVSA
VL: DVLMTQTPLSLPVSLGDQASISCRSSRTILHSSGNTYLEWYLQKPGQSPKLLIYKVSNRFSGVPDRFSGSGSGTDFTLNISRVEAEDLGVYYCFQDSHVPFTFGTGTKLEIK
EC50 (Tim3-ECD-His-Biotin [1]): 0.047 µg/mL | Kd (monomeric human Tim3-ECD [2]): 6.2 nM | EC50 (human TIM-3 on cells [3]): 0.069 µg/mL | Kd [4]: 1.52 nM | Kd (monomeric human Tim3-ECD [5]): 6.23 nM | specific binding MFI (human TIM-3 on cells [6]): 900 MFI | specific binding MFI (human TIM-3 on cells [7]): 1020 MFI | specific binding MFI (human TIM-3 on cells [8]): 1660 MFI | Kd [9]: 1.5 nM | IFN-gamma release in MLR at 1 µg/ml, % of IL-2 control (human TIM-3 on cells [10]): 18% | IFN-gamma release in MLR at 10 µg/ml, % of IL-2 control (human TIM-3 on cells [10]): 16% | IFN-gamma release in MLR at 40 µg/ml, % of IL-2 control (human TIM-3 on cells [10]): 25% | IC50 cytotoxicity (anti-mFc Fab-PE24 sandwich), RPMI-8226 (human TIM-3 on cells [11]): > 64 nM | MFI [12]: 197 MFI | MFI [13]: 137 MFI | MFI [14]: 184 MFI

B2: Tim3_0030 (antibody, V domains shown)
VH: QIQLVQSGPELKKPGETVKISCKASGYPFSEYSIHWVKQAPGKGLKWMVYVNTETGQPIVGDDFRGRFVLSLETSASTAYLQINNLKNEDTATYFCGGGGYPAYWGQGTLVTVSA
VL: B1 VL with T28S, L30V
Kd [4]: 1.28 nM | Kd (monomeric human Tim3-ECD [5]): 3.11 nM | specific binding MFI (human TIM-3 on cells [6]): 466 MFI | specific binding MFI (human TIM-3 on cells [7]): 419 MFI | specific binding MFI (human TIM-3 on cells [8]): 1410 MFI | IFN-gamma release in MLR at 1 µg/ml, % of IL-2 control (human TIM-3 on cells [10]): 3% | IFN-gamma release in MLR at 10 µg/ml, % of IL-2 control (human TIM-3 on cells [10]): 4% | IFN-gamma release in MLR at 40 µg/ml, % of IL-2 control (human TIM-3 on cells [10]): 14% | IC50 cytotoxicity (anti-mFc Fab-PE24 sandwich), RPMI-8226 (human TIM-3 on cells [11]): > 64 nM | MFI [12]: 144 MFI | MFI [13]: 119 MFI | MFI [14]: 163 MFI

B3: Tim3_0016 variant (Tim3_0018) (antibody, V domains shown)
VH: QVTLKESGPGILQPSQTLSLTCSFSGFSLSTSGMSVGWIRQPSGKGLEWLAHIWLNDDVFFNPALKRRLTISKDTSNNQVFLQIASVVTADTATYYCVRANGYLYALDYWGQGISVTVSS
VL: QIVLTQSPAIMSASPGQKVTITCSASSSVNYTQWYQQKLGSSPKLWIYDAFKLAPGVPARFSGSGTGTSYSLTISSMEAEDAASYFCHQWSSYPWTFGGGTKLEIK
notes: also called TIM3-0016 variant (0018); aTim3 0018
inflexion point (Tim3-ECD-His-Biotin [15]): 15.3 ng/mL | inflexion point (human TIM-3 on cells [16]): 29.4 ng/mL | EC50 (Tim3-ECD-His-Biotin [1]): 0.56 nM and 0.094 µg/mL | Kd (monomeric human Tim3-ECD [2]): 3.4 nM | EC50 (human TIM-3 on cells [3]): 0.52 nM and 0.087 µg/mL | Kd (monomeric cyno Tim3-ECD): 41.9 nM | Kd [4]: 1.11 nM | Kd (monomeric human Tim3-ECD [5]): 3.4 nM | specific binding MFI (human TIM-3 on cells [6]): 1940 MFI | specific binding MFI (human TIM-3 on cells [7]): 1820 MFI | specific binding MFI (human TIM-3 on cells [8]): 2330 MFI | EC50 (human TIM-3 on cells [17]): 0.0264 µg/mL | inflexion point (cynomolgus Tim3 (ELISA) [18]): 14.6 ng/mL | Kd [9]: 1.1 nM | IFN-gamma release in MLR at 1 µg/ml, % of IL-2 control (human TIM-3 on cells [10]): 12% | IFN-gamma release in MLR at 10 µg/ml, % of IL-2 control (human TIM-3 on cells [10]): 30% | IFN-gamma release in MLR at 40 µg/ml, % of IL-2 control (human TIM-3 on cells [10]): 36% | MFI [12]: 417 MFI | MFI [13]: 301 MFI | EC50 (Tim3-ECD-His-Biotin [19]): 0.0161 µg/mL | MFI [14]: 480 MFI | EC50 (cynomolgus Tim3 (ELISA) [20]): 0.0146 µg/mL

B4: 20G6 IgG (antibody, V domains shown)
VH: QVQLVQSGAEVKKPGASVKVSCKASGYTFTSYYMHWVRQAPGQGLEWMGIINPSGGSTSYAQKFQGRVTMTRDTSTSTVYMELSSLRSEDTAVYYCARGEWIRYYHFDYWGQGTLVTVSS
VL: QAVVTQEPSLTVSPGGTVTLTCGSSTGAVTTSNYANWVQEKPGQAFRGLIGGTNKRAPGTPARFSGSLLGGKAALTLSGAQPEDEAEYYCALWYSNLWVFGGGTKLTVL
notes: human IgG1
binding result (human FolR1 on cells): binds | binding result [21]: no binding (tested: 500 nM) | binding result [22]: no binding (tested: 500 nM) | binding result [23]: no binding (tested: 500 nM) | binding result [24]: no binding (tested: 500 nM)

B5: 36F2 Fab (Fab, V domains shown)
VH: QVQLVQSGAEVKKPGASVKVSCKASGYTFTSYYMHWVRQAPGQGLEWMGIINPSGGSTSYAQKFQGRVTMTHDTSTSTVYMELSSLRSEDTAVYYCARSFFTGFHLDYWGQGTLVTVSS
VL: EIVLTQSPGTLSLSPGERATLSCRASQSVSSSYLAWYQQKPGQAPRLLIYGASSRATGIPDRFSGSGSGTDFTLTISRLEPEDFAVYYCQQYTNEHYYTFGQGTKVEIK
binding result [25]: no binding | Kd [26]: 1810 nM | Kd [27]: 737 nM | binding result [28]: no binding | Kd [29]: 1640 nM

B6: 9D11 Fab (Fab, V domains shown)
VH: QVQLVQSGAEVKKPGASVKVSCKASGYTFTSYYMHWVRQAPGQGLEWMGIINPSGGPTSYAQKFQGRVTMTRDTSTSTVYMELSSLRSEDTAVYYCARGDFAWLDYWGQGTLVTVSS
VL: not shown
binding result [25]: no binding | Kd [26]: 8.64 nM | binding result [27]: no binding | binding result [28]: no binding | Kd [29]: 5.29 nM

B7: 14E4 IgG (antibody, V domains shown)
VH: not shown
VL: EIVLTQSPGTLSLSPGERATLSCRASQSVSSSYLAWYQQKPGQAPRLLIYGASSRATGIPDRFSGSGSGTDSTLTISRLEPEDFAVYYCQQPTSSPITFGQGTKVEIK
notes: human IgG1
binding result [21]: no binding (tested: 500 nM) | binding result [22]: no binding (tested: 500 nM) | binding result [23]: no binding (tested: 500 nM) | binding result [24]: no binding (tested: 500 nM)

B8: 14E4 Fab (Fab, V domains shown)
VH: not shown
VL: B7 VL
binding result [25]: no binding | binding result [26]: no binding | binding result [28]: no binding | binding result [29]: no binding
